For the data set, the target named is T1, MadR (Mycobacterium tuberculosis H37Rv, UniProt P9WMD9 1-234).
T1 sequence: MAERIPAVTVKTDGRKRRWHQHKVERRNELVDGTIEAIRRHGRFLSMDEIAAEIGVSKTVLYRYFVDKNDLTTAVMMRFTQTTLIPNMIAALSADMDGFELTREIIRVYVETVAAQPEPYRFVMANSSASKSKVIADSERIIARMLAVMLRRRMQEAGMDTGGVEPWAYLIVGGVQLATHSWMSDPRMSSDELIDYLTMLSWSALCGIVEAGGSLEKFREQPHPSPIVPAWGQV
Nature of the data set: EMSA. The conditions noted are these: protein: recombinant; tags: His-tag implied (pET28a, cobalt IMAC); chain copies: 2; blunt. In general terms: In EMSA bound probe runs differently from free probe, usually more slowly.

We go through 2 molecules from article PMC8872791, “MadR mediates acyl CoA-dependent regulation of mycolic acid desaturation in mycobacteria” (Proceedings of the National Academy of Sciences of the …, 2022).

B1: desA1 control (substituted motif) (dsDNA)
DNA 1: CCGTTCGAGACGACTAATGAGGTGCAACAATATACGATCACCATCGGTA
DNA 2: TACCGATGGTGATCGTATATTGTTGCACCTCATTAGTCGTCTCGAACGG
Consider B1, for which the binding result is recorded as “no binding”.

B2: desA2 control (substituted motif) (dsDNA)
DNA 1: TTCGAGAACGATGCAAATACGAAGGTATACTACCTCATGGTAATCAAACC
DNA 2: GGTTTGATTACCATGAGGTAGTATACCTTCGTATTTGCATCGTTCTCGAA
B2: the binding result is on record as “no binding”.
